Key:
[1] = target: human CD96 short isoform v2 expressed on CHO cells (human) (UniProt P40200); assay: FCM on hCD96v2-CHO cells
[2] = target: T1, hCD96-humanIgG1 fusion protein (human) (UniProt P40200); assay: SPR (Biacore), hCD96-hFc captured by anti-huFc
T1 sequence: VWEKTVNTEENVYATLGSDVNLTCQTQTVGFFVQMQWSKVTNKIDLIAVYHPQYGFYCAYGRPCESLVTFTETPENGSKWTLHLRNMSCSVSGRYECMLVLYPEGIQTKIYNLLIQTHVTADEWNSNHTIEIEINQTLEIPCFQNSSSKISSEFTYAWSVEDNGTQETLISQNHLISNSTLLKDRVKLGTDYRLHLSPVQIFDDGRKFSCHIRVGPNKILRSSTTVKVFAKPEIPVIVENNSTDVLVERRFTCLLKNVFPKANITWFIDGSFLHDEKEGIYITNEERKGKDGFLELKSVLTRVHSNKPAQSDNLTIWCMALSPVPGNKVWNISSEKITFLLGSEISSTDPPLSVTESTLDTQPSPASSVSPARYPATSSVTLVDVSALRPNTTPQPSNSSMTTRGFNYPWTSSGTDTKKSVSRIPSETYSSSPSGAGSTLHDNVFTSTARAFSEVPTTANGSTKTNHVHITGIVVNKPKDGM

[3] = target: human CD96 short isoform v2 expressed on CHO cells (human) (UniProt P40200); assay: FCM, inhibition of hCD155-Fc binding to hCD96v2-CHO cells
[4] = target: hCD226-His tagged protein transiently expressed on CHO cells (human) (UniProt Q15762); assay: FRET between anti-hCD226-PE (DX11) and anti-HA-APC by flow cytometry on CHO cells transfected with hCD96-HA and hCD226-His; right-hand plot; the left-hand plot of the panel prints FRET 0,22% (taken as the pooled negative control)
Sequence of hCD226-His tagged protein transiently expressed on CHO cells (human) (Q15762 19-336): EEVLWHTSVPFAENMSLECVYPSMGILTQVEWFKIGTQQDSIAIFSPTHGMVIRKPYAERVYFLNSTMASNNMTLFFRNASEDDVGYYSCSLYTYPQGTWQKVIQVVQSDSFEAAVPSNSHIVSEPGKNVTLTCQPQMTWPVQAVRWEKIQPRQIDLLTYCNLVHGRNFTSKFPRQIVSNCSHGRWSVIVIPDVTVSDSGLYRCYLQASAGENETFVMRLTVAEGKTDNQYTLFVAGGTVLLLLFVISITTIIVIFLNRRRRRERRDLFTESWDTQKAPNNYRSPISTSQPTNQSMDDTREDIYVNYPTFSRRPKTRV

[5] = target: hCD96-HA tagged protein transiently expressed on CHO cells (FRET assay) (human) (UniProt P40200); assay: FRET between anti-HA-PE and anti-HA-APC by flow cytometry on CHO cells transfected with hCD96-HA; right-hand plot; the left-hand plot of the panel prints FRET 0,10% (taken as the pooled negative control)

EC50 [1] [nM]	Maximum binding (delta MFI) [1] [delta MFI]	Kd [2] [nM]	koff [2] [s⁻¹]	kon [2] [M⁻¹ s⁻¹]	IC50 [3] [nM]	Maximal Inhibition Capacity (%) [3] [%]	FRET (% of cells in the FRET gate) [4] [%]	FRET (% of cells in the FRET gate) [5] [%]	Substance
1.59	283000	3.24	0.000346	107000	10.4	100	–	–	NK92.39 (antibody)
3.75	543000	–	–	–	15.8	100	–	–	clone 628211 (antibody)
–	–	–	–	–	–	–	17.9	11.6	hCD96-HA tagged protein transiently expressed on CHO cells (FRET assay) (from UniProt P40200 22-585) (receptor)

Source: US20230192845A1
